Source: patent US20240148895A1 (EISAI R AND D MANAGEMENT, published 2024)

T1: human CEACAM6 extracellular domain-SEAP-His protein (human)
T1 chain: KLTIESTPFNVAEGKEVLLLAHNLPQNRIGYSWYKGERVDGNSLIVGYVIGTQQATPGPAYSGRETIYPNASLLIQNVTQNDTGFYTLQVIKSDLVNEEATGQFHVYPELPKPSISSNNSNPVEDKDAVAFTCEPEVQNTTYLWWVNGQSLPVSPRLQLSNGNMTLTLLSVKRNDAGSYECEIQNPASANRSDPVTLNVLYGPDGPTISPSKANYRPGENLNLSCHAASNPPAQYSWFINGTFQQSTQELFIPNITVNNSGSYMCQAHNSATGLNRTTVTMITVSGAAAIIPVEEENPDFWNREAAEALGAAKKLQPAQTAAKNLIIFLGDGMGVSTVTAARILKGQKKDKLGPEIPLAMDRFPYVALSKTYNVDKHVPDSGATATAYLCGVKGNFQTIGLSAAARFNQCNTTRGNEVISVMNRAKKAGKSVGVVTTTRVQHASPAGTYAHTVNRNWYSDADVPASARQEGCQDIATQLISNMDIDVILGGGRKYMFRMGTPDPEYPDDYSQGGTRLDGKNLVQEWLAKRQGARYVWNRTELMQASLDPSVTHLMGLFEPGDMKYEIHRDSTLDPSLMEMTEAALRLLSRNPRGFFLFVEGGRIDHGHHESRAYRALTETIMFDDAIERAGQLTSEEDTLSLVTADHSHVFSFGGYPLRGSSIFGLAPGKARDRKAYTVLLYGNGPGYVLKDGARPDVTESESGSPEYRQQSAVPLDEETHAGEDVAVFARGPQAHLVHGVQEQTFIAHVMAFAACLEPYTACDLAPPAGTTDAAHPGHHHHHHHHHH

T2: human CEACAM6 expressed on Pan02/Pgp-KO/hCEACAM6 cells (human, UniProt P40199 35-320)
T2 construct: also called carcinoembryonic antigen-related cell adhesion molecule 6; CD66c
T2 sequence: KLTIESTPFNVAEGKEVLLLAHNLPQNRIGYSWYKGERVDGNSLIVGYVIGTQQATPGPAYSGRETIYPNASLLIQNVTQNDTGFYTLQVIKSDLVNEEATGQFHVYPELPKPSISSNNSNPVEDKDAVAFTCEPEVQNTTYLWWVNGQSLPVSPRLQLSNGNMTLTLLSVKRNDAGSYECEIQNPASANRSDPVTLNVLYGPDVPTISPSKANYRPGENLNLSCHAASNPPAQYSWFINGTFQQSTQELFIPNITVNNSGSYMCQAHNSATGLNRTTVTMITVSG


Assays:
[1] = target: T1, human CEACAM6 extracellular …; assay: ELISA: FLAG-tagged scFv from E. coli supernatant captured on anti-FLAG antibody, 20 nM antigen, HRP-labeled anti-His antibody detection, absorbance at 450 nm
Method: (§1) After the second panning procedure, a single colony from the concentrated phage-infected TG1 cells was transferred to culture medium on a 96-well plate. IPTG was added to induce expression of the FLAG-tagged scFv, and vibration culture was carried out overnight at 30° C. The TG1 cells were spinned down and the scFv-containing E. coli culture supernatant was used to pickup the wells that were reactive with human CEACAM6.
(§2) Reactivity with human CEACAM6 was evaluated by ELISA according to the following procedure, using either human CEACAM6 extracellular domain-SEAP-His protein or human CEACAM6 extracellular domain-MBP-His protein. The wells of a 96-well plate (Nunc) were coated with anti-FLAG antibody (Sigma). After incubation overnight at 4° C., the wells were blocked with 2% skim milk (BD) for 2 hours at room temperature. After rinsing 3 times with 0.02% Tween20/PBS (Nacalai Tesque, Inc.), human CEACAM6 extracellular domain-SEAP-His protein or human CEACAM6 extracellular domain-MBP-His protein (final concentration: 20 nM) and E. coli culture supernatant containing scFv were added to each well and incubation was continued for 2 hours at room temperature. […] An equivalent of stopping solution (1N H₂SO₄, FujiFilm Wako Pure) was added to each well, and the absorbance at 450 nm was read off using a microplate reader (Thermo Scientific). […]

[2] = target: human CEACAM6 extracellular domain-MBP-His protein (human); assay: as above
Method: as §1, §2

[3] = target: T2, human CEACAM6 expressed on …; assay: flow cytometry sorting ([..] II) of Pan02 cells transfected with human CEACAM6
Excerpt: The mouse pancreatic cancer cell line Pan02 (National Institutes of Health) was transfected with recombinant Cas9 protein (Alt-R S.p. HiFi Cas9 V3, Integrated DNA Technologies), and mouse Abcb1a and single guided RNA (Aft-R CRISPR sgRNA, Integrated DNA Technologies) for Abcb1b, using a NEPA21 Super Electroporator (Nepa Gene). The obtained cells were further transfected with human CEACAM6 using pLV[Exp]-Puro-EFS lentiviral vector (VectorBuilder) and MISSION Lentiviral Packaging Mix (Sigma-Aldrich). […] The established cells were designated as cell line Pan02/Pgp-KO/hCEACAM6, and were maintenance cultured in a 5% CO₂ incubator (37° C.) using RPMI (FujiFilm-Wako Pure Chemical Industries) containing 10% fetal bovine serum (FBS: SIGMA 173012) and penicillin/streptomycin (FujiFilm-Wako Pure Chemical Industries) (hereunder referred to simply as “culture medium”).

Binder | binding result [1] | binding result [2] | binding result [3]
human antibody fragment (scFv) specifically binding to human CEACAM6, from which antibody A was designed (scFv, V domains shown, Tested as a single-chain FLAG-tagged scFv in E. coli culture supernatant; also called FLAG-tagged scFv) VH: not shown VL: SSELTQDPAVSVALGQTVRITCQGDSLRSYYASWYQQKPGQAPVLVIYGKNNRPSGIPDRFSGSSSGNTASLTITGAQAEDEADYYCQSYYSSSHYVVFGGGTKLTVL | binds | binds | –
antibody A (human anti-CEACAM6_#84.7 monoclonal antibody) (antibody, human IgG1, lambda, V domains shown, The heavy chain constant region is human IgG1/2m: IgG1 CH1 and hinge, IgG2 CH2 and CH3 with V234A and G237A (Eu numbering); The light chain constant region is human Ig lambda) VH: not shown VL: SSELTQDPAVSVALGQTVRITCQGDSLRSYYASWYQQKPGQAPVLVIYGKNNRPSGIPDRFSGSSSGNTASLTITGAQAEDEADYYCQSYYSSSHYVVFGGGTKLTVLG | – | – | binds
